Where no end group is shown, it is not given here.
Target: T1, CXCR4 (Homo sapiens, UniProt P61073)
T1 construct: expressed in transfected cells; host or cells: QT6 cells, calcium phosphate transfection
Assay: HIV-1 gp 120-CXCR4 mediated cell-cell fusion assay (luciferase reporter)
Type: cell-based
Settings: for inhibiting cell-cell fusion, compared with N-terminal SDF-1 peptides SEQ ID NOS:8 and 10: effector 293 cells + QT6 target cells (CD4, CXCR4), peptide concentration 25 μM (FIG. 1)

T1 sequence (P61073 whole entry): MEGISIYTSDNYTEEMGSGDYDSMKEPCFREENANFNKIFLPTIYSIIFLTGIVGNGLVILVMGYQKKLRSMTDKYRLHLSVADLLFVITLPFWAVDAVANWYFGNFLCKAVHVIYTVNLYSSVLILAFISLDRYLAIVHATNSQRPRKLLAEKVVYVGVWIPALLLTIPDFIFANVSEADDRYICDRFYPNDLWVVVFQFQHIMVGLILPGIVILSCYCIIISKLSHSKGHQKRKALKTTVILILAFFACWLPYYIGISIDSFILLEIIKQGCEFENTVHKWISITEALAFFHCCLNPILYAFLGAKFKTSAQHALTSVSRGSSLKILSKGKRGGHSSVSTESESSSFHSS

Sequence	inhibiting cell-cell fusion, compared with N-terminal SDF-1 peptides SEQ ID NOS:8 and 10	activity in inhibiting cell-cell fusion (higher concentration of 50 μM)
KPVSLSYRCPCRFFGGQGLKWIQEYLEKALN (cysteine pairing not given here) [SEQ ID NO:5, SDF-1 amino acids 1-14 and 55-67 linked by a (Gly)4 bridge]	substantially more effective	
LKWIQEYLEKALN [SEQ ID NO:9, C-terminal SDF-1 peptide prepared for comparison, reference compound]		only negligibly active
LSYRCPCRFFGGGGLKWIQEYLEKALN (cysteine pairing not given here) [SEQ ID NO:4, SDF-1 amino acids 5-14 and 55-67 linked by (Gly)4]	substantially more effective	
LSYRCPCRFFGGLKWIQEYLEKALN (cysteine pairing not given here) [SEQ ID NO:6, SDF-1 amino acids 5-14 and 55-67 linked by (Gly)2]	substantially more effective	
LSYRCPCRFFKKKKLKWIQEYLEKALN (cysteine pairing not given here) [SEQ ID NO:7, SDF-1 amino acids 5-14 and 55-67 linked by (Lys)4]	substantially more effective	
